Source: WO2021212049A2

Experiments:
[1] = biological target: untagged SARS-CoV-2 RBD expressed in E. coli BL21(DE3) and oxidatively refolded (RBDWT) (SARS-CoV-2) (UniProt P0DTC2); assay: BLI, RBD expressed in E. coli
[2] = biological target: untagged SARS-CoV-2 RBD expressed in E. coli BL21(DE3) and oxidatively refolded (RBDWT) (SARS-CoV-2) (UniProt P0DTC2); assay: BLI, RBD expressed in E. coli, 1:1 Langmuir fit
[3] = biological target: Mammalian SARS-CoV2 RBD (residues 331-524) with C-terminal 6XHis Tag (SARS-CoV-2) (UniProt P0DTC2); assay: ELISA on coated antigen, anti-human IgG-HRP

mAb 2B04 (antibody)
half-life [1]: 23.7 min
Kd [2]: 1.05 nM
minimum positive concentration [3]: < 5 µg/mL
